Laboratory results reported in PMC10221034 (2023).

B1: wild-type rTpiA (recombinant Streptococcus pneumoniae D39 triosephosphate isomerase) [Streptococcus pneumoniae D39] / human plasma plasminogen [human] (parent complex)
chain 1: SRKPFIAGNWKMNKNPEEAKAFVEAVASKLPSSDLVEAGIAAPALDLTTVLAVAKGSNLKVAAQNCYFENAGAFTGETSPQVLKEIGTDYVVIGHSERRDYFHETDEDINKKAKAIFANGMLPIICCGESLETYEAGKAAEFVGAQVSAALAGLTAEQVAASVIAYEPIWAIGTGKSASQDDAQKMCKVVRDVVAADFGQEVADKVRVQYGGSVKPENVASYMACPDVDGALVGGASLEAESFLALLDFVK
chain 2: EPLDDYVNTQGASLFSVTKKQLGAGSIEECAAKCEEDEEFTCRAFQYHSKEQQCVIMAENRKSSIIIRMRDVVLFEKKVYLSECKTGNGKNYRGTMSKTKNGITCQKWSSTSPHRPRFSPATHPSEGLEENYCRNPDNDPQGPWCYTTDPEKRYDYCDILECEEECMHCSGENYDGKISKTMSGLECQAWDSQSPHAHGYIPSKFPNKNLKKNYCRNPDRELRPWCFTTDPNKRWELCDIPRCTTPPPSSGPTYQCLKGTGENYRGNVAVTVSGHTCQHWSAQTPHTHNRTPENFPCKNLDENYCRNPDGKRAPWCHTTNSQVRWEYCKIPSCDSSPVSTEQLAPTAPPELTPVVQDCYHGDGQSYRGTSSTTTTGKKCQSWSSMTPHRHQKTPENYPNAGLTMNYCRNPDADKGPWCFTTDPSVRWEYCNLKKCSGTEASVVAPPPVVLLPDVETPSEEDCMFGNGKGYRGKRATTVTGTPCQDWAAQEPHRHSIFTPETNPRAGLEKNYCRNPDGDVGGPWCYTTNPRKLYDYCDVPQCAAPSFDCGKPQVEPKKCPGRVVGGCVAHPHSWPWQVSLRTRFGMHFCGGTLISPEWVLTAAHCLEKSPRPSSYKVILGAHQEVNLEPHVQEIEVSRLFLEPTRKDIALLKLSSPAVITDKVIPACLPSPNYVVADRTECFITGWGETQGTFGAGLLKEAQLPVIENKVCNRYEFLNGRVQSTELCAGHLAGGTDSCQGDSGGPLVCFEKDKYILQGVTSWGLGCARPNKPGVYVRVSRFVTWIEGVMRNN

Variants of: B1
Assay: ELISA; rTpiA protein-coated microtiter plate; measured 60 min after substrate addition; n = 9; parent: 1.4; read off a plot

Variant | response
chain 1 K11A | ~1.3 A405
chain 1 K215A | ~1.4 A405
chain 1 K29A | ~1.2 A405
chain 1 K55A | ~1.3 A405
chain 1 K14A | ~1.3 A405
chain 1 K3A | ~1.3 A405
chain 1 K114A | ~1.3 A405
chain 1 K20A | ~1.3 A405
chain 1 K138A | ~1.3 A405
chain 1 K205A | ~1.3 A405
chain 1 K111A | ~1.3 A405
chain 1 K60A | ~1.3 A405
chain 1 K84A | ~1.2 A405
chain 1 K251A | ~0.14 A405
chain 1 K188A | ~1.3 A405
chain 1 K112A | ~1.2 A405
chain 1 K185A | ~1.3 A405
chain 1 K176A | ~1.3 A405
chain 1 K111A, chain 1 K112A, chain 1 K114A | ~0.86 A405
